Data: publication PMC6613789

Target: apoE4 (UniProt P02649 19-317, C130R)
Assay: EMSA

Sequence of apoE4 (P02649 19-317 C130R): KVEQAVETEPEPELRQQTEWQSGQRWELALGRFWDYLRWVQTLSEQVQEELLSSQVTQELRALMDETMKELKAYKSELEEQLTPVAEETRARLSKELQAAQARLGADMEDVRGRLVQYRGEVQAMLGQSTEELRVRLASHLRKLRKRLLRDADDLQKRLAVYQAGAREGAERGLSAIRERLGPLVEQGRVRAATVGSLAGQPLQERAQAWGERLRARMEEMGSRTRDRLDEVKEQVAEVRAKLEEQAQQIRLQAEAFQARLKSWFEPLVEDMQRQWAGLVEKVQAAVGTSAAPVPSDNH

B1: CLEAR EMSA probe (dsDNA)
DNA 1: GTAGGTCACGTGACCGGG
DNA 2: CCCGGTCACGTGACCTAC
B1: binds.
